Tests used:
[1] = molecular target: monobiotinylated Fab' antibody fragment; experiment: BIAcore SPR, mutein immobilized on CM5 chip, Fab' at 12.5-400 nmol/l, 25 C
[2] = molecular target: monobiotinylated Fab' antibody fragment; experiment: BIAcore SPR, mutein immobilized on CM5 chip, Fab' at 12.5-400 nmol/l, 25 C; first of 2 product lots
[3] = molecular target: monobiotinylated Fab' antibody fragment; experiment: BIAcore SPR, mutein immobilized on CM5 chip, Fab' at 12.5-400 nmol/l, 25 C; second of 2 product lots
[4] = molecular target: monobiotinylated Fab' antibody fragment; experiment: BIAcore SPR, streptavidin immobilized on CM5 chip, Fab' at 12.5-400 nmol/l, 25 C
[5] = molecular target: monobiotinylated Fab' antibody fragment; experiment: BIAcore SPR, mutein-thermo-BSA conjugate immobilized on CM5 chip, Fab' at 12.5-400 nmol/l, 25 C

Chain of core streptavidin (wild type streptavidin) (chain): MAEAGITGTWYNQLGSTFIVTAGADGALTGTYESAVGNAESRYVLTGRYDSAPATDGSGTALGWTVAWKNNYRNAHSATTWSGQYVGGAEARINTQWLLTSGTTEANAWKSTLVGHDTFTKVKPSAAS
Chain of SA-Ser27Arg/Ser45Arg TBSA conjugate (P02769 25-607, change not shown): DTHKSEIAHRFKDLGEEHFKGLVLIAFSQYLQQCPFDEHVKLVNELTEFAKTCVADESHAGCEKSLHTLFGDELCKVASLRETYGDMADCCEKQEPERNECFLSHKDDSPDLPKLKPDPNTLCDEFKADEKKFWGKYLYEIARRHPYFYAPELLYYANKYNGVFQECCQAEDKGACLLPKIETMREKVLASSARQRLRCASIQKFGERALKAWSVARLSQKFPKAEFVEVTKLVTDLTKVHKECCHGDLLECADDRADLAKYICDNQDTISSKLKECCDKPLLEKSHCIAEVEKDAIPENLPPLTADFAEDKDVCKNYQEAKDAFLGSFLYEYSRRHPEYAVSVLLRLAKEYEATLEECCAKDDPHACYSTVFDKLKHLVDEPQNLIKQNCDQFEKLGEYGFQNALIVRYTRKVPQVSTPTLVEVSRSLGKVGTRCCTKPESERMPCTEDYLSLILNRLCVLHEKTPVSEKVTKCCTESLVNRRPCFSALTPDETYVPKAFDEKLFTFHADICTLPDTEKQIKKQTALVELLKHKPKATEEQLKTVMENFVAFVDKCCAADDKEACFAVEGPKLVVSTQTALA

Ka [1] [M⁻¹] | koff [1] [s⁻¹] | kon [1] [M⁻¹ s⁻¹] | t/2 diss [1] [min] | Substance | further results
7.7e+06 | 0.0059 | 45000 | 2 | SA-Ser27Arg/Ser45Arg/Leu110Trp | –
2.7e+08 | 0.00054 | 130000 | 22.6 | SA-Ser45Tyr/Leu110Trp | –
4.6e+07 | 0.0013 | 54000 | 8.7 | SA-Leu25Trp/Ser45Tyr/Leu110Trp | –

Continued, substance first:

Substance | Ka [1] [M⁻¹] | koff [1] [s⁻¹] | kon [1] [M⁻¹ s⁻¹] | t/2 diss [1] [min] | further results
SA-Ser27Arg/Ser45Arg/Trp120Ala | 2e+07 | 0.0052 | 100000 | 2.2 | –
SA-Ser27Arg/Ser45Arg | – | – | – | – | Ka [2]: 4.2e+07 M⁻¹; kon [2]: 130000 M⁻¹ s⁻¹; t/2 diss [2]: 3.7 min; Ka [3]: 2.1e+07 M⁻¹; koff [3]: 0.0041 s⁻¹; kon [3]: 85000 M⁻¹ s⁻¹; t/2 diss [3]: 2.8 min
SA-Ser45Trp/Leu110Trp | 6.1e+08 | 0.00033 | 140000 | 40.8 | –
core streptavidin (wild type streptavidin) | – | – | – | – | Ka [4]: > 1e+10 M⁻¹; koff [4]: < 1e-05 s⁻¹; kon [4]: 220000 M⁻¹ s⁻¹; t/2 diss [4]: > 20 h
SA-Ser27Arg/Ser45Arg TBSA conjugate (from UniProt P02769 25-607) | – | – | – | – | Ka [5]: 3.3e+07 M⁻¹; koff [5]: 0.003 s⁻¹; kon [5]: 100000 M⁻¹ s⁻¹; t/2 diss [5]: 3.9 min
SA-Leu25Trp/Ser45Arg | 3.6e+08 | 0.00022 | 79000 | 51.8 | –
SA-Trp120Ala | 2.9e+08 | 0.00023 | 67000 | 49.4 | –
SA-Leu25Trp/Ser45Trp/Leu110Trp | 7e+07 | 0.00087 | 49000 | 13.4 | –

Source: patent US6391571
